Results from patent publication US20140178332A1 (published 2014).

T1: recombinant purified human IL-12 p70 (human, UniProt P29459 23-219)
T1 sequence 1: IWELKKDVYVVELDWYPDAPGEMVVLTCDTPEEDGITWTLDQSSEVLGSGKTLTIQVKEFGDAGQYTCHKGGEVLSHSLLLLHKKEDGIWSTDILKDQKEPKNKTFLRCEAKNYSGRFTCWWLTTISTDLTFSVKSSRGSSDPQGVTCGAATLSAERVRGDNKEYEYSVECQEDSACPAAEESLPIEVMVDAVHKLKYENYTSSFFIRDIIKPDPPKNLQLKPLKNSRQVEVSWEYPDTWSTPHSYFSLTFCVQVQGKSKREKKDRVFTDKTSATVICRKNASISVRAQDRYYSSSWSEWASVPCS
T1 sequence 2: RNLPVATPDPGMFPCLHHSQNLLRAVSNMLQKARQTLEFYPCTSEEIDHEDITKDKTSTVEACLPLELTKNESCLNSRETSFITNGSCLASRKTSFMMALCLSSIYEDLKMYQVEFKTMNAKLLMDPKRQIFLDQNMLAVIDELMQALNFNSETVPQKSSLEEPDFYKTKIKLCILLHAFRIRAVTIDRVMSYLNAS

T2: recombinant purified cyno IL-12 p70 (cynomolgus monkey)
T2 chain 1: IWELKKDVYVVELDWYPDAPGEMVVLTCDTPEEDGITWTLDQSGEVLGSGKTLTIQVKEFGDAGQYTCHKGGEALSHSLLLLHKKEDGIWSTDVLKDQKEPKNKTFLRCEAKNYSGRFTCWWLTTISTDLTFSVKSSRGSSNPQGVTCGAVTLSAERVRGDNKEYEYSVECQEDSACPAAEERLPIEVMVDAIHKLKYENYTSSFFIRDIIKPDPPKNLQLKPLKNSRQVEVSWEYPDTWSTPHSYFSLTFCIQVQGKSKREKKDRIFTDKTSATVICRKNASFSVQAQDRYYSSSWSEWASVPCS
T2 chain 2: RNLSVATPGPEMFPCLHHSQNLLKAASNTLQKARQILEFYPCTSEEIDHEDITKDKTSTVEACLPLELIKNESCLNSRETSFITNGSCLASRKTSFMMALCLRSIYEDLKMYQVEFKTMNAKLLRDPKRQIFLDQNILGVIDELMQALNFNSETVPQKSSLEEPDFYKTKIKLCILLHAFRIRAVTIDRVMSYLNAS

T3: recombinant purified mouse IL-12 (Peprotech) (mouse, UniProt P43432 23-335; P43431 23-215)
T3 construct: Bought reagent; also called mu IL-12; murine IL-12
T3 sequence (looked up) 1: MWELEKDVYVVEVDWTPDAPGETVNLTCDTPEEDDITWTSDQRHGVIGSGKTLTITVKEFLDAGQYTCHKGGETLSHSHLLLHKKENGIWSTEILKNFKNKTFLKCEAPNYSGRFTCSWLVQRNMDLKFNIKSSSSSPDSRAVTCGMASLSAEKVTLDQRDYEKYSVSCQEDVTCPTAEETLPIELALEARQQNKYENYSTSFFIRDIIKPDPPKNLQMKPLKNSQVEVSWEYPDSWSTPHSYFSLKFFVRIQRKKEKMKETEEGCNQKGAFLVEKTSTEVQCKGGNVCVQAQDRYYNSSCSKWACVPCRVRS
T3 sequence (looked up) 2: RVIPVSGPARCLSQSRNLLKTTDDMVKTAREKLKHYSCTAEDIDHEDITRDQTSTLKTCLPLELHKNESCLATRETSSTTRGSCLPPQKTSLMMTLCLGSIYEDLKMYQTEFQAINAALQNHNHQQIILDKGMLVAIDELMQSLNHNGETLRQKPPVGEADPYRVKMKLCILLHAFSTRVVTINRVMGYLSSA


Legend:
[1] = biological target: T1, recombinant purified human IL-12 p70; test: cell-based or functional assay
[2] = biological target: T2, recombinant purified cyno IL-12 p70; test: cell-based or functional assay
[3] = biological target: T3, recombinant purified mouse IL-12 …; test: direct ELISA, plate coated with 5 ug/ml recombinant mouse IL-12
Procedure: To determine whether the ten monoclonal antibodies described above recognize murine IL-12, two ELISAs were set up. First, a direct ELISA was set up by directly coating ELISA plates with 5 ug/ml of recombinant purified mouse IL-12 (Peprotech). Murine-anti-human IL-12 p40 mAbs were prepared at various concentrations ranging from 3 to 200 ng/ml in PBS containing 0.1% BSA (Sigma, St. Louis, Mo.). 50 μl of each antibody dilution was added to the coated ELISA plate and incubated for 1 hour at room temperature. Wells were washed 3 times with PBS containing 0.05% Tween-20. Anti-mouse IgG-HRP antibody (R&D #HAF007, Minneapolis, Minn.) was diluted 1:2000 in PBS containing 0.1% BSA; 50 ul/well was added and the plates incubated for 1 hour at room temperature. Fifty microliters of TMB solution (Sigma # T0440, St. Louis, Mo.) was added to each well and incubated for 10 minutes at room temperature. The reaction was stopped by addition of 2N sulphuric acid. Plates were read spectrophotmetrically at a wavelength of 450 nm.

[4] = biological target: T1, recombinant purified human IL-12 p70; test: SPR (Biacore), mAb captured on anti-mouse IgG Fc, IL-12 p70 as analyte
Procedure: The BIACORE assay (Biacore, Inc, Piscataway, N.J.) determines the affinity of antibodies with kinetic measurements of on-, off-rate constants. Binding of antibodies to recombinant purified human IL-12 p70 or recombinant purified human IL-12 p40 were determined by surface plasmon resonance-based measurements with a Biacore® 3000 instrument (Biacore® AB, Uppsala, Sweden) using running HBS-EP (10 mM HEPES [pH 7.4], 150 mM NaCl, 3 mM EDTA, and 0.005% surfactant P20) at 25° C. All chemicals were obtained from Biacore® AB (Uppsala, Sweden) or otherwise from a different source as described in the text. Approximately 5000 RU of goat anti-mouse IgG, (Fcγ), fragment specific polyclonal antibody (Pierce Biotechnology Inc, Rockford, Ill.) diluted in 10 mM sodium acetate (pH 4.5) was directly immobilized across a CM5 research grade biosensor chip using a standard amine coupling kit according to manufacturer's instructions and procedures at 25 μg/ml. Unreacted moieties on the biosensor surface were blocked with ethanolamine. Modified carboxymethyl dextran surface in flowcell 2 and 4 was used as a reaction surface. Unmodified carboxymethyl dextran without goat anti-mouse IgG in flow cell 1 and 3 was used as the reference surface. For kinetic analysis, rate equations derived from the 1:1 Langmuir binding model were fitted simultaneously to association and dissociation phases of all eight injections (using global fit analysis) with the use of Biaevaluation 4.0.1 software. Purified antibodies were diluted in HEPES-buffered saline for capture across goat anti-mouse IgG specific reaction surfaces. Mouse antibodies to be captured as a ligand (25 μg/ml) were injected over reaction matrices at a flow rate of 5 μl/min. The association and dissociation rate constants, kₒₙ (unit M⁻¹ s⁻¹) and koff (unit s⁻¹) were determined under a continuous flow rate of 25 μl/min. Rate constants were derived by making kinetic binding measurements at ten different antigen concentrations ranging from 10-200 nM. The equilibrium dissociation constant (unit M) of the reaction between mouse antibodies and recombinant purified human IL-12 p70 or recombinant purified human IL-12 p40 was then calculated from the kinetic rate constants by the following formula: KD=koff/kₒₙ. Binding is recorded as a function of time and kinetic rate constants are calculated.

Binder | Average IC50 (nM) Human IL-12, PHA blast IFN-γ assay [1] [nM] | Average IC50 (nM) Cyno IL-12, PHA blast IFN-γ assay [2] [nM] | binding result [3] | Kd [4] [nM] | koff [4] [s⁻¹] | kon [4] [M⁻¹ s⁻¹]
murine anti-human IL-12p40 monoclonal antibody 7G3 (antibody, V domains shown, Murine mAb) VH: EVQLQQSGAEFVRSGASVKLSCTASGLNIKDYYIHWVKQRPEQVLDWIGWIDPENGYSEYAPRFQDKATMTADTSSNTAYLHLSSLTSEDTAVYYCNPGELARYFDYWGQGTTLTVSS VL: DIVLSQSPATLSVTPGDSVSLSCRASQSISKNLHWYQQKSHESPRLLIKYTSQSISGIPSRFSGSGSGTDFTLSINSVETEDFGMYFCQQSISWPLTFGAGTKLELKR | 0.047 | > 20 | no binding (tested: 3 to 200 ng/ml mAb) | 0.27 | 0.00028 | 1.1e+06
murine anti-human IL-12p40 monoclonal antibody 1A6 (antibody, V domains shown, Murine mAb) VH: QVTLKESGPGILKPSQTLSLTCSFSGFSLSTSGMGVSWIRQPSGKGLEWLAHIWWDGDNYYNPSLKSQLTISKDTSRNQVFLRIATVDTADTATYYCARRTRVNYAMDYWGQGTSVTVSS VL: SVVMTQTPKFLLVSAGDRVTITCKASQSVSNDVAWFQQKPGQSPKLLIYYASNRYTGVPDRFTGSGYGTDFTFTISTVQAEDLAVYFCQQDYNSPWTFGGGTKLEIKR | 0.052 | 0.044 | no binding (tested: 3 to 200 ng/ml mAb) | 0.23 | 3.5e-05 | 150000
murine anti-human IL-12p40 monoclonal antibody 1H6 (antibody, V domains shown, Murine mAb) VH: EVKLVESGGGLVQPGGSRKLSCAASGFTFSDYGMVWVRQAPGKGLEWVAYISSGSSTIHYADTMKGRFTISRDNPKNTLFLQMSSLRSEDTAMYYCARRHYYAMDYWGQGTSVTVSS VL: SFVMTQTPKFLLVSAGDRVTITCKASQSVSNDVAWYQQKPGQSPKLLIYYASNRYTGVPDRFTGTGYGTDFTFTISTVQAEDLAVYFCQQDYTSPFTFGSGTKLEIKR | 0.69 | 1.6 | no binding (tested: 3 to 200 ng/ml mAb) | 0.25 | 9.9e-05 | 430000
murine anti-human IL-12p40 monoclonal antibody 5E8 (antibody, V domains shown, Murine mAb) VH: QIQLVQSGPELKKPGETVKISCKASGYSFTDYSMHWVKQAPGKGLKWMDWINTETGEPTYADDFKGRFAFSLETSASTAYLQINNLKNEDTATYFCSRRRYRAFDYWGQGTTLTVSS VL: SIVMTQSPKFLLVSAGDRVTITCKASQSVSNDVAWYQQKLGQSPKLLIYYASNRYTGVPDRFTGSGYGTDFTFTINTVQAEDLAVYFCQQDYTSPYTFGGGTKLEIQR | 12 | – | no binding (tested: 3 to 200 ng/ml mAb) | 4 | 0.0023 | 570000
murine anti-human IL-12p40 monoclonal antibody 3A11 (antibody, V domains shown, Murine mAb) VH: EVQLQQSGADLEKPGASVKLSCTASGFNIKDTFMHWVKQRPEQGLEWIGRIDPANGHTKYDPKFQGKATITADTSSNTAYLQLSSLTSEDTAVYYCARWGQFGLLWNAMDYWGQGTSVTVSS VL: not shown | 3.4 | – | no binding (tested: 3 to 200 ng/ml mAb) | 1.2 | 0.00019 | 150000

Binders with a lower Kd [4], results first:

Average IC50 (nM) Human IL-12, PHA blast IFN-γ assay [1] [nM] | Average IC50 (nM) Cyno IL-12, PHA blast IFN-γ assay [2] [nM] | binding result [3] | Kd [4] [nM] | koff [4] [s⁻¹] | kon [4] [M⁻¹ s⁻¹] | Binder
0.031 | 0.078 | no binding (tested: 3 to 200 ng/ml mAb) | 0.12 | 2.9e-05 | 250000 | murine anti-human IL-12p40 monoclonal antibody 1D4 (antibody, V domains shown, Murine mAb purified from hybridoma supernatant) VH: QVTLKESGPGILQPSQTLSLTCSFSGFSLRKSVMGVSWIRQPSGKGLEWLAHIYWDDDKYYNPSLKSRLTISKDPSRNQVFLKITSVDTADAATYYCTRRGIRSAMDYWGQGTSVTVSS VL: SVVMTQTPKFLLVSAGDRVTITCKASQSVSNDVAWYQQKPGQSPKLLIYYASNRYTGVPDRFTGSGYGTDFTFIISTVRAEDLAVYFCQQDYNSPWTFGGGTKLEIKR
0.31 | 1.4 | no binding (tested: 3 to 200 ng/ml mAb) | 0.044 | 2.3e-05 | 510000 | murine anti-human IL-12p40 monoclonal antibody 1D8 (antibody, V domains shown, Murine mAb) VH: QVQLQQSGAELMKPGASVKISCKATGYTFSSYWIEWVKQRPGHGLEWIGDILPGSGSTNYNEKFKDKATFTADTSFNTAYMQLSSLTSEDSAVYYCATRRFRGLDYWGQGTTLTVSS VL: SIVMTQTPKFLLVSAGDRVTITCKASQSVSNDVAWYQQKSGQSPKLLIYYASNRYTGVPDRFTGSGYGTDFTFTISTVQPEDLAVYFCQQDYTSPFTFGSGTKLEIKR
0.039 | 0.028 | no binding (tested: 3 to 200 ng/ml mAb) | 0.1 | 1.4e-05 | 130000 | murine anti-human IL-12p40 monoclonal antibody 4B4 (antibody, V domains shown, Murine mAb) VH: QVTLKESGPGILKPSQTLSLTCSLSGFSLSTSGMGVSWIRQPSGKGLEWLAHIWWDGDSYSNPSLRSRLTISRDTSRNQVFLRIATVDTADTATYYCARRTRVNYAMDYWGQGTSVTVSS VL: SVVMTQTPKFLLVSAGDRVTMTCKASQSVSNDVAWFQQKPGQSPKLLIYYASNRYTGVPDRFTGSGYGTDFTFTISTVQAEDLAVYFCQQDYNSPWTFGGGTKLEIKR
